# Data reported in US20080096222.
# Tests used:
# [1] = target: H3-GST with the mutation K4A
# [2] = target: H3-GST with the mutation R2A
protein,measurement,setting,value
myc-tagged human haspin (protein) AASLPGPGSRLFRTYGAADGRRQRRPGREAAQWFPPQDRRRFFNSSGSSDASIGDPSQSDDPDDPDDPDFPGSPVRRRRRCPGGRVPKDRPSLTVTPKRWKLRARPSLTVTPRRLGLRARPPQKCSTPCGPLRLPPFPSRDSGRLSPDLSVCGQPRDGDELGISASLFSSLASPCPGSPTPRDSVISIGTSACLVAASAVPSDLHLPEVSLDRASLPCSQEEATGGAKDTRMVHQTRASLRSVLFGLMNSGTPEDSEFRADGKNMRESCCKRKLVVGNGPEGPGLSSTGKRRATGQDSCQERGLQEAVRREHQEASVPKGRIVPRGTDRLERTRSSRKSKHQEATETSLLHSHRFKKGQKLGKDSFPTQDLTPLQNACFWTKTRASFSFHKKKIVTDVSEVCSIYTTATSLSGSLLSECSNRPVMNRTSGAPSSWHSSSMYLLSPLNTLSISNKKASDAEKVYGECSQKGPVPFSHCLPTEKLQRCEKIGEGVFGEVFQTIADHTPVAIKIIAIEGPDLVNGSHQKTFEEILPEIIISKELSLLSGEVCNRTEGFIGLNSVHCVQGSYPPLLLKAWDHYNSTKGSANDRPDFFKDDQLFIVLEFEFGGIDLEQMRTKLSSLATAKSILHQLTASLAVAEASLRFEHRDLHWGNVLLKKTSLKKLHYTLNGKSSTIPSCGLQVSIIDYTLSRLERDGIVVFCDVSMDEDLFTGDGDYQFDIYRLMKKENNNRWGEYHPYSNVLWLHYLTDKMLKQMTFKTKCNTPAMKQIKRKIQEFHRTMLNFSSATDLLCQHSLFK,phosphorylation of H3-GST by haspin (in vitro kinase assay),[1],substantially reduced phosphorylation of H3-GST by haspin
same,phosphorylation of H3-GST by haspin (in vitro kinase assay),[2],substantially reduced phosphorylation of H3-GST by haspin
